In patent US10202593B2, “Evolved sortases and uses thereof” (President and Fellows of Harvard College, priority 2013, dated 2019):
Several values for one entry are separate records, joined by “and”; a condition that tells them apart may be missing. Identical values can stand only once. Like-named read-outs stand apart in the source and are kept apart here.

Legend:
Type in all cases: biochemical
[1] = test system: LPETG (Abz-LPETGK(Dnp)-CONH2); test: In vitro sortase kinetics HPLC assay, LPETG substrate
In short: (§1)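 Abz-LXEXGK(Dnp) peptides in 300 mM Tris pH 7.5, 150 mM NaCl, 5 mM CaCl2, 5% DMSO, GGG; 22.5° C., acid-quenched, converted fraction by reverse-phase HPLC peak areas. kcat and Km from eight substrate concentrations fit to Michaelis-Menten; KH at 1 mM substrate over eight GGG levels.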

[2] = test system: LAETG (Abz-LAETGK(Dnp)-CONH2); test: In vitro sortase kinetics HPLC assay, LAETG substrate; details: for Km: read-out: Km
In short: as §1

[3] = test system: LPESG (Abz-LPESGK(Dnp)-CONH2); test: In vitro sortase kinetics HPLC assay, LPESG substrate
In short: as §1

[4] = test system: LPECG; test: In vitro sortase kinetics HPLC assay, LPECG substrate
Method: See below for details on sortase expression and purification, and on the synthesis of Abz-LPETGK(Dnp)-CONH2 (SEQ ID NO: 19). […] Reactions were initiated with the addition of enzyme and incubated at 22.5° C. for 3 to 20 minutes before quenching with 0.5 volumes of 1 M HCl. Five to ten nmol of peptide from the quenched reactions were injected onto an analytical reverse-phase Eclipse XDB-C18 HPLC column (4.6×150 mm, 5 μm, Agilent Technologies) and chromatographed using a gradient of 10 to 65% acetonitrile with 0.1% TFA in 0.1% aqueous TFA over 13 minutes. Retention times under these conditions for the Abz-LPETGK(Dnp)-CONH2 (SEQ ID NO: 19) substrate, the released GKDnp peptide, and the Abz-LPETGGG-COOH (SEQ ID NO: 20) product were 12.8, 10.4, and 9.1 min, respectively. To calculate the percent conversion, the ratio of the integrated areas of the Abz-LPETGGG-COOH (SEQ ID NO: 20) and Abz-LPETGK(Dnp)-CONH2 (SEQ ID NO: 19) peptide Abs220 peaks was compared to a standard curve generated by mixing the product and starting peptide in known ratios. To determine […] and Km, reaction rates were fit to the Michaelis-Menten equation using OriginPro 7.0 software. All kinetics values reported represent the average of at least three measurements. Percent conversion was also calculated by using the ratio of the integrated areas of the GK(Dnp)-CONH2 and Abz-LPETGK(Dnp)-CONH2 peptide Abs355 peaks were compared directly (Example 5). To determine kcat and Km, LPETG, reaction rates were fit to the Michaelis-Menten equation using Microsoft Excel using the Solver add-in. To determine Km,GGG and KH, reaction rates were fit to the modified Michaelis-Menten, for which KH is as defined when KH<<Km,GGG.
Assays to determine eSrtA, eSrtA(2A-9) and eSrtA(4S-9) specificity were performed by preparing 10 μM stocks of Abz-LXEXGK(Dnp) (SEQ ID NO: 75) peptides in 300 mM Tris pH 7.5, 150 mM NaCl, 5 mM CaCl2, 5% v/v DMSO, and 100 mM Gly-Gly-Gly-COOH (GGG). Reactions were performed by adding eSrtA(2A-9) to a final concentration of 450 nM, eSrtA(4S-9) to a final concentration of 115 nM or eSrtA to a final concentration of 47.5 nM and a final volume of 100 μL, then incubating at 22.5° C. for 15 minutes. Reactions were quenched by the addition of 0.2 volumes of 5 M HCl, then were injected onto an analytical reverse-phase Eclipse XDB-C18 HPLC column (4.6×150 mm, 5 μm, Agilent Technologies) and chromatographed using a gradient of 10 to 65% acetonitrile with 0.1% TFA in 0.1% aqueous TFA over 13 minutes. Retention times under these conditions for the Abz-LPETGK(Dnp)-CONH2 (SEQ ID NO: 19) substrate, the released GKDnp peptide, and the Abz-LPETGGG-COOH (SEQ ID NO: 20) product were 12.8, 10.4, and 9.1 min, respectively, while the remaining Abz-LXEXGK(Dnp)-CONH2 (SEQ ID NO: 74) substrates varied in retention time between 9 and 13 minutes. To calculate the percent conversion, the ratio of the integrated areas of the GK(Dnp)-CONH2 and Abz-LPETGK(Dnp)-CONH2 (SEQ ID NO: 19) peptide Abs355 peaks were compared directly. Subsequent determination of kcat/Km and KH were performed as described for in vitro SrtA characterization.
The original pentamutant comprising the mutations P94R, D160N, D165A, K190E, and K196T is referred to as eSrtA. Sortase variants herein were evolved using eSrtA as the parent enzyme in the evolution experiments. In some cases, an evolved sortase comprises a N160K mutation instead of a D160N or a T196S mutation instead of a K196T. Parameters are reported with their standard deviations as determined from three technical replicates. kcat, Km and kcat/Km parameters were determined at 100 mM GGG concentration, while Km,GGG and KH parameters were determined at 1 mM concentration of the listed substrate.

[5] = GGG varied, substrate wt (LPETG)
[6] = GGG varied, substrate 4S (LPESG)

B1: eSrtA(4S-9): P94R, N98D, S102C, A104V, A118T, F122A, K134R, F144L, D160N, D165A, I182V, E189F, K190E, K196T (protein)
chain: QAKPQIPKDKSKVAGYIEIPDADIKEPVYPGPATREQLDRGVCFVEENESLDDQNISITGHTAIDRPNYQFTNLRAAKKGSMVYLKVGNETRKYKMTSIRNVKPTAVEVLDEQKGKDKQLTLVTCDDYNFETGVWETRKIFVATEVK
KH ([1]; 1 mM LPETG): 295 ± 19 µM | KN ([1]; 1 mM LPETG, eight GGG concentrations): 295 ± 19 µM | Km ([1]; 1 mM LPETG, read-out: Km,GGG): 98000 ± 13000 µM | Avg kcat (Hz) ([1]; Example 5 variants, substrate wt (LPETG)): 0.0468 Hz | Km ([1]; Example 5 variants, substrate wt (LPETG), read-out: Avg KM): 66.1 µM | Avg kHydro (Hz) [1, 5]: 0.000173 Hz | Avg kcat (Hz) [1, 5]: 0.05704 Hz | Km ([1]; KM for GGG, substrate wt (LPETG), read-out: Avg KM): 97600 µM | KH,LPETG ([1]; LPETG substrate): 295 ± 18 µM | Kcat (Hz) ([1]; Sub LPETG, 100 mM GGG): 0.047 ± 0.006 Hz | Km ([1]; Sub LPETG, 100 mM GGG, read-out: Km): 64.7 ± 4.2 µM | Rel. Activity ([1]; Sub LPETG, kcat/Km of the enzyme's preferred substrate relative to kcat/Km on this substrate): 25 | Kcat (Hz) ([1]; Table 2, Sub LPETG): 0.047 ± 0.006 Hz | Km ([1]; Table 2, Sub LPETG, read-out: Km): 64.7 ± 4.2 µM | activity on LPETG ([1]; round 9 clones): minimally active on LPETG | Avg KH ([1]; substrate wt (LPETG)): 294.8601 µM | activity on LAETG [2]: negligible activity | Kcat (Hz) ([2]; Sub LAETG, 100 mM GGG): 0.0078 ± 0.0006 Hz | Km ([2]; Sub LAETG, 100 mM GGG): 387 ± 49 µM | Rel. Activity ([2]; Sub LAETG, kcat/Km of the enzyme's preferred substrate relative to kcat/Km on this substrate): 898 | Kcat (Hz) ([2]; Table 2, Sub LAETG): 0.0078 ± 0.0006 Hz | Km ([2]; Table 2, Sub LAETG): 387 ± 49 µM | KH ([3]; 1 mM LPESG): 174 ± 32 µM | KN ([3]; 1 mM LPESG, eight GGG concentrations): 174 ± 32 µM | Km ([3]; 1 mM LPESG, read-out: Km,GGG): 69000 ± 12000 µM | Avg kcat (Hz) ([3]; Example 5 variants, substrate 4S (LPESG)): 2.146 Hz | Km ([3]; Example 5 variants, substrate 4S (LPESG), read-out: Avg KM): 123 µM | Avg kHydro (Hz) [3, 6]: 0.008016 Hz | Avg kcat (Hz) [3, 6]: 3.178 Hz | Km ([3]; KM for GGG, substrate 4S (LPESG), read-out: Avg KM): 69500 µM | KH (KH,LPESG) ([3]; LPESG substrate): 174 ± 32 µM | Kcat (Hz) ([3]; Sub LPESG, 100 mM GGG): 2.05 ± 0.15 Hz | Km ([3]; Sub LPESG, 100 mM GGG, read-out: Km): 113 ± 12 µM | Rel. Activity ([3]; Sub LPESG, kcat/Km of the enzyme's preferred substrate relative to kcat/Km on this substrate): 1 | Kcat (Hz) ([3]; Table 2, Sub LPESG): 2.05 ± 0.15 Hz | Km ([3]; Table 2, Sub LPESG, read-out: Km): 113 ± 12 µM | change in specificity for LPESG versus LPETG relative to eSrtA ([3]; ratio of (kcat/KM)target to (kcat/KM)LPETG, relative to eSrtA): 120 fold and 125 fold | preference for LPESG over LPETG ([3]; ratio of kcat/KM): 25 fold | Specificity ([3]; ratio of kcat/KM, 4S (LPESG) over wt (LPETG)): 24.953 | Avg KH ([3]; substrate 4S (LPESG)): 173.5925 µM | activity for LPECG compared with LPETG [4]: exceeds that of LPETG | KH ([4]; 1 mM LPECG): 120 ± 23 µM | Km ([4]; 1 mM LPECG, read-out: Km,GGG): 55000 ± 1400 µM | Kcat (Hz) ([4]; Sub LPECG, 100 mM GGG): 5.0 ± 0.6 Hz | Km ([4]; Sub LPECG, 100 mM GGG, read-out: Km): 69 ± 13 µM
